Laboratory results reported in doi:10.1101/2021.08.24.457482 (bioRxiv, 2021).

B1: Sema3A fused in frame with alkaline phosphatase (sema3A-AP) (ligand)
chain: NYQNGKNNVPRLKLSYKEMLESNNVITFNGLANSSSYHTFLLDEERSRLYVGAKDHIFSFDLVNIKDFQKIVWPVSYTRRDECKWAGKDILKECANFIKVLKAYNQTHLYACGTGAFHPICTYIEIGHHPEDNIFKLENSHFENGRGKSPYDPKLLTASLLIDGELYSGTAADFMGRDFAIFRTLGHHHPIRTEQHDSRWLNDPKFISAHLISESDNPEDDKVYFFFRENAIDGEHSGKATHARIGQICKNDFGGHRSLVNKWTTFLKARLICSVPGPNGIDTHFDELQDVFLMNFKDPKNPVVYGVFTTSSNIFKGSAVCMYSMSDVRRVFLGPYAHRDGPNYQWVPYQGRVPYPRPGTCPSKTFGGFDSTKDLPDDVITFARSHPAMYNPVFPMNNRPIVIKTDVNYQFTQIVVDRVDAEDGQYDVMFIGTDVGTVLKVVSIPKETWYDLEEVLLEEMTVFREPTAISAMELSTKQQQLYIGSTAGVAQLPLHRCDIYGKACAECCLARDPYCAWDGSACSRYFPTAKRRTRRQDIRNGDPLTHCSDLHHDNHHGHSPEERIIYGVENSSTFLECSPKSQRALVYWQFQRRNEERKEEIRVDDHIIRTDQGLLLRSLQQKDSGNYLCHAVEHGFIQTLLKVTLEVIDTEHLEELLHKDDDGDGSKTKEMSNSMTPSQKVWYRDFMQLINHPNLNTMDEFCEQVWKRDRKQRRQRPGHTPGNSNKWKHLQENKKGRNRRTHEFERAPRSV
B2: modified truncated sema3A (T-sema3A) (ligand)
chain: NYQNGKNNVPRLKLSYKEMLESNNVITFNGLANSSSYHTFLLDEERSRLYVGAKDHIFSFDLVNIKDFQKIVWPVSYTRRDECKWAGKDILKECANFIKVLKAYNQTHLYACGTGAFHPICTYIEIGHHPEDNIFKLENSHFENGRGKSPYDPKLLTASLLIDGELYSGTAADFMGRDFAIFRTLGHHHPIRTEQHDSRWLNDPKFISAHLISESDNPEDDKVYFFFRENAIDGEHCGKATHARIGQICKNDFGGHRSLVNKWTTFLKARLICSVPGPNGIDTHFDELQDVFLMNFKDPKNPVVYGVFTTSSNIFKGSAVCMYSMSDVRRVFLGPYAHRDGPNYQWVPYQGRVPYPRPGTCPSKTFGGFDSTKDLPDDVITFARSHPAMYNPVFPMNNRPIVIKTDVNYQFTQIVVDRVDAEDGQYDVMFIGTDVGTVLKVVSIPKETWYDLEEVLLEEMTVFREPTAISAMELSTKQQQLYIGSTAGVAQLPLHR
B3: CD72 fused with a V5 epitope tag, expressed in U87MG-ΔNRP-1-CD72+ cells (receptor)
chain: MAEAITYADLRFVKAPLKKSISSRLGQDPGADDDGEITYENVQVPAVLGVPSSLASSVLGDKAAVKSEQPTASWRAVTSPAVGRILPCRTTCLRYLLLGLLLTCLLLGVTAICLGVRYLQVSQQLQQTNRVLEVTNSSLRQQLRLKITQLGQSAEDLQGSRRELAQSQEALQVEQRAHQAAEGQLQACQADRQKTKETLQSEEQQRRALEQKLSNMENRLKPFFTCGSADTCCPSGWIMHQKSCFYISLTSKNWQESQKQCETLSSKLATFSEIYPQSHSYYFLNSLLPNGGSGNSYWTGLSSNKDWKLTDDTQRTRTYAQSSKCNKVHKTWSWWTLESESCRSSLPYICEMTAFRFPD

Columns and labels:
[1] = target: neuropilin-1 (NRP-1) on parental U87MG cells (human (endogenous in U87MG), UniProt O14786 22-923); experiment: alkaline phosphatase fusion binding to cells
[2] = target: the molecule itself; experiment: SDS-PAGE with and without reducing agent, western blot
[3] = target: B1; experiment: alkaline phosphatase fusion binding to cells

neuropilin-1 (NRP-1) on parental U87MG cells, sequence (O14786 22-923): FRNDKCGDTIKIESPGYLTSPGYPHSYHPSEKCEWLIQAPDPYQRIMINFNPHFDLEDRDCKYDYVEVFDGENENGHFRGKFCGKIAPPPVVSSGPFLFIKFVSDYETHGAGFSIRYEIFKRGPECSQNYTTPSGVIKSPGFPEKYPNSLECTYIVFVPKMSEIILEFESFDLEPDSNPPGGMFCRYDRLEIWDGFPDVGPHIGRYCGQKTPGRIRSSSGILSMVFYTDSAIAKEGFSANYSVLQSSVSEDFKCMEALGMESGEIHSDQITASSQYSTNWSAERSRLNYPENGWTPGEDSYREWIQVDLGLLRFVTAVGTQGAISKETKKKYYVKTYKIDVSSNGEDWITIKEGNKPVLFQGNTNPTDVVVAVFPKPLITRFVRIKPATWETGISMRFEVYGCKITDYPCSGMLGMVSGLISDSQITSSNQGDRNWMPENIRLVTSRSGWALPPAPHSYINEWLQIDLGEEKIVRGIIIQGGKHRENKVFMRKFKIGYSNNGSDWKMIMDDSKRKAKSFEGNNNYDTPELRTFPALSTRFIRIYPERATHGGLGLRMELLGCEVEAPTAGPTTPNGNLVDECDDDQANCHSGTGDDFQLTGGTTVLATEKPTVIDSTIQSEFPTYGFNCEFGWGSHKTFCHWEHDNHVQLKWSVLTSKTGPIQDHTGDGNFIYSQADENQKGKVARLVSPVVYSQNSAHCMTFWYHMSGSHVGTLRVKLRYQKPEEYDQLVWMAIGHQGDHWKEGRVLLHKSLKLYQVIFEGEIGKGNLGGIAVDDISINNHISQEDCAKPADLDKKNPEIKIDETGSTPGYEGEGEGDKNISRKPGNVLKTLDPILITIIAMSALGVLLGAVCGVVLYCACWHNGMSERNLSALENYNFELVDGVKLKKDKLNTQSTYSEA

Binder: B1
- Kd [1]: ~4.73 nM

Binder: B2
- stoichiometry N [2]: 2

Binder: B3
- Kd [3]: ~7.62 nM
